2 proteins from paper PMC5620080, “The cryo-EM structure of hibernating 100S ribosome dimer from pathogenic Staphylococcus aureus” (Nature Communications, 2017) can be followed below.

Data set [1] deals with the molecule itself. In words: cryo-EM structure; native 100S ribosome dimers purified from S. aureus; 6.8 Å map of the 100S, 6.7 Å focused map of the dimer interface (C2 symmetry), 3.2 Å masked 30S map.
Data set [2] deals with the molecule itself. The data set is described as follows: SEC; Superdex-200 Increase 10/300 GL; 20 mM Tris pH 7.9, 20 mM MgCl2, 250 mM NH4Cl, 10 mM KCl; 0.5 ml/min; 50 µg of purified HPFSA protein; apparent molecular weights from a standard curve. On the technique in general: Size exclusion chromatography separates by hydrodynamic size, large species first.

B1: S. aureus hibernating promoting factor (HPFSA), full length, in the native 100S ribosome (natural protein, UniProt Q2FIN9 1-190, looked up)
chain: MIRFEIHGDNLTITDAIRNYIEEKIGKLERYFNDVPNAVAHVKVKTYSNSATKIEVTIPLKNVTLRAEERNDDLYAGIDLINNKLERQVRKYKTRINRKSRDRGDQEVFVAELQEMQETQVDNDAYDDNEIEIIRSKEFSLKPMDSEEAVLQMNLLGHDFFVFTDRETDGTSIVYRRKDGKYGLIQTSEQ
notes: hibernating promoting factor (HPF), Staphylococcus aureus JE2 (USA300), full-length hpf under its native promoter; residues 1-190; first 100 residues modelled, C-terminal domain fitted as a homology model; Two copies in the 100S dimer, one for each 70S; also called long HPF; N-HPFSA (N-terminal domain); source: S. aureus hpf-knockout strain (USA300, JE2) with plasmid pLI50hpf; isolated with the …
In the case of B1, the binding result in data set [1] is “binds”.

B2: recombinant His-tagged full-length HPF (HPFSA) (natural protein, S. aureus, UniProt Q2FIN9 1-190, looked up)
chain: MIRFEIHGDNLTITDAIRNYIEEKIGKLERYFNDVPNAVAHVKVKTYSNSATKIEVTIPLKNVTLRAEERNDDLYAGIDLINNKLERQVRKYKTRINRKSRDRGDQEVFVAELQEMQETQVDNDAYDDNEIEIIRSKEFSLKPMDSEEAVLQMNLLGHDFFVFTDRETDGTSIVYRRKDGKYGLIQTSEQ
notes: hibernating promoting factor (HPF), Staphylococcus aureus, full length; also called full-length HPFSA protein; source: E. coli BL21(DE3), pET28a, purified
Consider B2, for which the binding result in data set [2] is listed as “binds”.
